Sequences and labels used below:
B1: R212Q: point mutant of SEQ ID NO: 109 (protein)
chain: MAQGKVALEEHFAIPETLQDSAGFVPGDYWKELQHRLLDIQDTRLKLMDAHGIETMILSLNAPAVQAIPDRRKAIEIARRANDVLAEECAKRPDRFLAFAALPLQDPDAATEELQRCVNDLGFVGALVNGFSQEGDGQTPLYYDLPQYRPFWGEVEKLDVPFYLHPRNPLPQDSRIYDGHPWLLGPTWAFAQETAVHALRLMASGLFDEHPQLNIILGHMGEGLPYMMWRIDHRVAWVKLPPRYPAKRRFMDYFNENFHITTSGNFRTQTLIDAILEIGADRILFSTDWPFENIDHASDWFNATSIAEADRVKIGRTNARRLFKLDGA
modifications: Dicamba decarboxylase variant clone: DC.4.032
B2: W229Y: point mutant of SEQ ID NO: 109 (protein)
chain: B1 chain with Q212R, W229Y
modifications: Dicamba decarboxylase variant clone: DC.4.032
B3: V235I: point mutant of SEQ ID NO: 109 (protein)
chain: B1 chain with Q212R, V235I
modifications: Dicamba decarboxylase variant clone: DC.4.032
B4: N214Q: point mutant of SEQ ID NO: 109 (protein)
chain: B1 chain with Q212R, N214Q
modifications: Dicamba decarboxylase variant clone: DC.4.032
B5: S298T: point mutant of SEQ ID NO: 109 (protein)
chain: B1 chain with Q212R, S298T
modifications: Dicamba decarboxylase variant clone: DC.4.032
B6: G27S: point mutant of SEQ ID NO: 109 (protein)
chain: B1 chain with G27S, Q212R
modifications: Dicamba decarboxylase variant clone: DC.4.032
B7: K239H: point mutant of SEQ ID NO: 109 (protein)
chain: B1 chain with Q212R, K239H
modifications: Dicamba decarboxylase variant clone: DC.4.032
B8: L240E: point mutant of SEQ ID NO: 109 (protein)
chain: B1 chain with Q212R, L240E
modifications: Dicamba decarboxylase variant clone: DC.4.032
B9: W30L: point mutant of SEQ ID NO: 109 (protein)
chain: B1 chain with W30L, Q212R
modifications: Dicamba decarboxylase variant clone: DC.4.032
B10: S298A: point mutant of SEQ ID NO: 109 (protein)
chain: B1 chain with Q212R, S298A
modifications: Dicamba decarboxylase variant clone: DC.4.032
B11: L38I: point mutant of SEQ ID NO: 109 (protein)
chain: B1 chain with L38I, Q212R
modifications: Dicamba decarboxylase variant clone: DC.4.032
B12: N302A: point mutant of SEQ ID NO: 109 (protein)
chain: B1 chain with Q212R, N302A
modifications: Dicamba decarboxylase variant clone: DC.4.032
B13: A328R: point mutant of SEQ ID NO: 109 (protein)
chain: B1 chain with Q212R, A328R
modifications: Dicamba decarboxylase variant clone: DC.4.032
B14: D20F: point mutant of SEQ ID NO: 109 (protein)
chain: B1 chain with D20F, Q212R
modifications: Dicamba decarboxylase variant clone: DC.4.032
B15: L240A: point mutant of SEQ ID NO: 109 (protein)
chain: B1 chain with Q212R, L240A
modifications: Dicamba decarboxylase variant clone: DC.4.032
B16: G27A: point mutant of SEQ ID NO: 109 (protein)
chain: B1 chain with G27A, Q212R
modifications: Dicamba decarboxylase variant clone: DC.4.032
B17: A303E: point mutant of SEQ ID NO: 109 (protein)
chain: B1 chain with Q212R, A303E
modifications: Dicamba decarboxylase variant clone: DC.4.032
B18: G27T: point mutant of SEQ ID NO: 109 (protein)
chain: B1 chain with G27T, Q212R
modifications: Dicamba decarboxylase variant clone: DC.4.032
B19: L240D: point mutant of SEQ ID NO: 109 (protein)
chain: B1 chain with Q212R, L240D
modifications: Dicamba decarboxylase variant clone: DC.4.032
B20: A328D: point mutant of SEQ ID NO: 109 (protein)
chain: B1 chain with Q212R, A328D
modifications: Dicamba decarboxylase variant clone: DC.4.032
B21: E16A: point mutant of SEQ ID NO: 109 (protein)
chain: B1 chain with E16A, Q212R
modifications: Dicamba decarboxylase variant clone: DC.4.032
B22: R243A: point mutant of SEQ ID NO: 109 (protein)
chain: B1 chain with Q212R, R243A
modifications: Dicamba decarboxylase variant clone: DC.4.032
B23: D299A: point mutant of SEQ ID NO: 109 (protein)
chain: B1 chain with Q212R, D299A
modifications: Dicamba decarboxylase variant clone: DC.4.032
B24: G327Q: point mutant of SEQ ID NO: 109 (protein)
chain: B1 chain with Q212R, G327Q
modifications: Dicamba decarboxylase variant clone: DC.4.032
B25: R321N: point mutant of SEQ ID NO: 109 (protein)
chain: B1 chain with Q212R, R321N
modifications: Dicamba decarboxylase variant clone: DC.4.032

Positions count from the first letter of the chain named. Names may count otherwise.

The nature of one assay: Saturation mutagenesis of SEQ ID NO:109: dicamba decarboxylation activity of point mutants (carbon dioxide released). To be noted: dicamba decarboxylation activity of point mutants of SEQ ID NO: 109, relative to unchanged template.
B1: the “Average Activity (Fold of SEQ ID NO: 109)” value was 1.7 Fold of SEQ ID NO: 109.

In the case of B2, the “Average Activity (Fold of SEQ ID NO: 109)” value is given as 1.7 Fold of SEQ ID NO: 109.

B3: the “Average Activity (Fold of SEQ ID NO: 109)” value was 1.8 Fold of SEQ ID NO: 109.

In the case of B4, the “Average Activity (Fold of SEQ ID NO: 109)” value was 1.8 Fold of SEQ ID NO: 109.

As for B5, the “Average Activity (Fold of SEQ ID NO: 109)” value was 2.3 Fold of SEQ ID NO: 109.

For the molecule B6, the “Average Activity (Fold of SEQ ID NO: 109)” value is recorded as 2.2 Fold of SEQ ID NO: 109.

As to B7, the “Average Activity (Fold of SEQ ID NO: 109)” value is 1.8 Fold of SEQ ID NO: 109.

In the case of B8, the “Average Activity (Fold of SEQ ID NO: 109)” value was 2.1 Fold of SEQ ID NO: 109.

B9: the “Average Activity (Fold of SEQ ID NO: 109)” value is 1.7 Fold of SEQ ID NO: 109.

With B10, the “Average Activity (Fold of SEQ ID NO: 109)” value is 2.1 Fold of SEQ ID NO: 109.

Regarding B11, the “Average Activity (Fold of SEQ ID NO: 109)” value is reported as 2.0 Fold of SEQ ID NO: 109.

Regarding B12, the “Average Activity (Fold of SEQ ID NO: 109)” value was 1.9 Fold of SEQ ID NO: 109.

In the case of B13, the “Average Activity (Fold of SEQ ID NO: 109)” value is listed as 3.0 Fold of SEQ ID NO: 109.

Regarding B14, the “Average Activity (Fold of SEQ ID NO: 109)” value is 1.9 Fold of SEQ ID NO: 109.

B15: the “Average Activity (Fold of SEQ ID NO: 109)” value is listed as 2.3 Fold of SEQ ID NO: 109.

For B16, the “Average Activity (Fold of SEQ ID NO: 109)” value is given as 2.0 Fold of SEQ ID NO: 109.

Turning to B17, the “Average Activity (Fold of SEQ ID NO: 109)” value is 2.3 Fold of SEQ ID NO: 109.

Consider B18, for which the “Average Activity (Fold of SEQ ID NO: 109)” value was 2.0 Fold of SEQ ID NO: 109.

For the molecule B19, the “Average Activity (Fold of SEQ ID NO: 109)” value is 2.2 Fold of SEQ ID NO: 109.

For B20, the “Average Activity (Fold of SEQ ID NO: 109)” value is recorded as 2.3 Fold of SEQ ID NO: 109.

Turning to B21, the “Average Activity (Fold of SEQ ID NO: 109)” value was 1.8 Fold of SEQ ID NO: 109.

In the case of B22, the “Average Activity (Fold of SEQ ID NO: 109)” value is 1.8 Fold of SEQ ID NO: 109.

For B23, the “Average Activity (Fold of SEQ ID NO: 109)” value is recorded as 2.0 Fold of SEQ ID NO: 109.

For the molecule B24, the “Average Activity (Fold of SEQ ID NO: 109)” value is on record as 2.8 Fold of SEQ ID NO: 109.

Consider B25, for which the “Average Activity (Fold of SEQ ID NO: 109)” value is listed as 1.7 Fold of SEQ ID NO: 109.

Staying with this assay, now noted: point mutation in SEQ ID NO: 109.
For B1, the “Average Activity (Fold of SEQ ID NO: 109)” value is reported as 1.7 Fold of SEQ ID NO: 109.

As for B2, the “Average Activity (Fold of SEQ ID NO: 109)” value is 1.7 Fold of SEQ ID NO: 109.

Turning to B3, the “Average Activity (Fold of SEQ ID NO: 109)” value was 1.8 Fold of SEQ ID NO: 109.

Consider B4, for which the “Average Activity (Fold of SEQ ID NO: 109)” value is on record as 1.8 Fold of SEQ ID NO: 109.

In the case of B6, the “Average Activity (Fold of SEQ ID NO: 109)” value is on record as 2.2 Fold of SEQ ID NO: 109.

Consider B7, for which the “Average Activity (Fold of SEQ ID NO: 109)” value was 1.8 Fold of SEQ ID NO: 109.

With B8, the “Average Activity (Fold of SEQ ID NO: 109)” value is reported as 2.1 Fold of SEQ ID NO: 109.

With B9, the “Average Activity (Fold of SEQ ID NO: 109)” value is listed as 1.7 Fold of SEQ ID NO: 109.

As to B10, the “Average Activity (Fold of SEQ ID NO: 109)” value was 2.1 Fold of SEQ ID NO: 109.

As for B11, the “Average Activity (Fold of SEQ ID NO: 109)” value is listed as 2.0 Fold of SEQ ID NO: 109.

As to B12, the “Average Activity (Fold of SEQ ID NO: 109)” value is on record as 1.9 Fold of SEQ ID NO: 109.

Regarding B14, the “Average Activity (Fold of SEQ ID NO: 109)” value was 1.9 Fold of SEQ ID NO: 109.

In the case of B20, the “Average Activity (Fold of SEQ ID NO: 109)” value is 2.3 Fold of SEQ ID NO: 109.

In the case of B22, the “Average Activity (Fold of SEQ ID NO: 109)” value is 1.8 Fold of SEQ ID NO: 109.

On to B24, for which the “Average Activity (Fold of SEQ ID NO: 109)” value is given as 2.8 Fold of SEQ ID NO: 109.

With B25, the “Average Activity (Fold of SEQ ID NO: 109)” value was 1.7 Fold of SEQ ID NO: 109.

Values taken from US20160053277A1, “Compositions Having Dicamba Decarboxylase Activity and Methods of Use” (PIONEER HI-BRED INTERNATIONAL, INC., priority 2013, published 2016).
